Test results as given in PMC2928650.

Molecular target: T1, Ets1 280-441 (UniProt P14921 280-441)
T1 sequence: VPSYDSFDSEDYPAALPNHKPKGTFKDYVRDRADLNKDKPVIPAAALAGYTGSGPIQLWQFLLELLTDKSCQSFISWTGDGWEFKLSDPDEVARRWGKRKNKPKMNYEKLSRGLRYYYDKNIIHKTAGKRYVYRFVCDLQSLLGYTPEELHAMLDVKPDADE
Test: X-ray crystallography

B1: stromelysin-1 EBS palindrome, crystal duplex (dsDNA)
DNA 1: CAGGAAGCACTTCCTG
DNA 2: GCAGGAAGTGCTTCCT
  binding result: binds
